Source: publication PMC3335848, “Characterization of Multi-Functional Properties and Conformational Analysis of MutS2 from Thermotoga maritima MSB8” (PLoS ONE, 2012)

Tests used:
[1] = molecular target: the molecule itself; experiment: AUC; sedimentation velocity, 20°C, 40000 rpm, 24 h, absorbance at 280 nm, C(s) method
TmMutS2 [2] = molecular target: T1, TmMutS2 (Thermotoga maritima MSB8, UniProt Q9X105 1-757); experiment: EMSA; no ATP; 0-2 uM protein; strongest binding among the DNAs; EMSA: 25 mM Hepes-NaOH pH 7.5, 200 mM NaCl, 0.5 mM EDTA, 37 C, 1 h; DNA 1 uM, TmMutS2 0-2 uM, +/- 1 mM ATP; conditions: protein: recombinant; tags: His-tag removed with TEV protease (pET-28aTEV); chain copies: 2; label: 5'-32P (EMSA); four-way junction of 4 strands
T1 sequence: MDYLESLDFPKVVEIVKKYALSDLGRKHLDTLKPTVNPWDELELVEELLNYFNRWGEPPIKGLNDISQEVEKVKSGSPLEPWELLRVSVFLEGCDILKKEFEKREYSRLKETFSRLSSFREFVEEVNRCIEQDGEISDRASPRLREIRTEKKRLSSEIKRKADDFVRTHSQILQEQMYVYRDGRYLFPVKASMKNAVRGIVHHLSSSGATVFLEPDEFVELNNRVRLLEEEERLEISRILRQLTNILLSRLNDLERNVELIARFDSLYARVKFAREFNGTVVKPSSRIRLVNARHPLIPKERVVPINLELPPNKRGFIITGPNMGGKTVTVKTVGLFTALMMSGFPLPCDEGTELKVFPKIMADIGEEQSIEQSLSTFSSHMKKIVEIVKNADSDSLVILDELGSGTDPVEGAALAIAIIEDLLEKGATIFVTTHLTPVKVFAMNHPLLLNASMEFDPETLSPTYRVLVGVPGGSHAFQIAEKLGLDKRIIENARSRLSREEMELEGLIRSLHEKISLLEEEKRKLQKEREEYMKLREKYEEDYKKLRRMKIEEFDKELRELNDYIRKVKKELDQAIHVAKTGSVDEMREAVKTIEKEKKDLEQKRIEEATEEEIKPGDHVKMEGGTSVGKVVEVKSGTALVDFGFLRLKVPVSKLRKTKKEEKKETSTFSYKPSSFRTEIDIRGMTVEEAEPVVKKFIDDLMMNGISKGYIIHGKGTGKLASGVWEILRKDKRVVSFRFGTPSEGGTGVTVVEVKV

TmMutS2 [3] = molecular target: T1, TmMutS2; experiment: EMSA; no ATP; stronger than linear and overhang; EMSA: 25 mM Hepes-NaOH pH 7.5, 200 mM NaCl, 0.5 mM EDTA, 37 C, 1 h; DNA 1 uM, TmMutS2 0-2 uM, +/- 1 mM ATP; conditions: protein: recombinant; tags: His-tag removed with TEV protease (pET-28aTEV); chain copies: 2; label: 5'-32P; fork; S19[1-37] paired with 3' part of S16, both other arms unpaired

B1: Thermotoga maritima MutS2 (enzyme, Thermotoga maritima MSB8, UniProt Q9X105 1-757, looked up)
chain: MDYLESLDFPKVVEIVKKYALSDLGRKHLDTLKPTVNPWDELELVEELLNYFNRWGEPPIKGLNDISQEVEKVKSGSPLEPWELLRVSVFLEGCDILKKEFEKREYSRLKETFSRLSSFREFVEEVNRCIEQDGEISDRASPRLREIRTEKKRLSSEIKRKADDFVRTHSQILQEQMYVYRDGRYLFPVKASMKNAVRGIVHHLSSSGATVFLEPDEFVELNNRVRLLEEEERLEISRILRQLTNILLSRLNDLERNVELIARFDSLYARVKFAREFNGTVVKPSSRIRLVNARHPLIPKERVVPINLELPPNKRGFIITGPNMGGKTVTVKTVGLFTALMMSGFPLPCDEGTELKVFPKIMADIGEEQSIEQSLSTFSSHMKKIVEIVKNADSDSLVILDELGSGTDPVEGAALAIAIIEDLLEKGATIFVTTHLTPVKVFAMNHPLLLNASMEFDPETLSPTYRVLVGVPGGSHAFQIAEKLGLDKRIIENARSRLSREEMELEGLIRSLHEKISLLEEEKRKLQKEREEYMKLREKYEEDYKKLRRMKIEEFDKELRELNDYIRKVKKELDQAIHVAKTGSVDEMREAVKTIEKEKKDLEQKRIEEATEEEIKPGDHVKMEGGTSVGKVVEVKSGTALVDFGFLRLKVPVSKLRKTKKEEKKETSTFSYKPSSFRTEIDIRGMTVEEAEPVVKKFIDDLMMNGISKGYIIHGKGTGKLASGVWEILRKDKRVVSFRFGTPSEGGTGVTVVEVKV
notes: MutS2 of Thermotoga maritima MSB8, gene amplified from genomic DNA; 89 kDa; residue numbers run to 757; Vector pET-28aTEV; also called TmMutS2; apo-TmMutS2; source: E. coli BL21 (DE3), purified (heat step at 65°C, Ni-NTA, TEV cleavage, Heparin Hitrap HP, Superdex 200 HR)
B1 was tested, and the “stoichiometry N” value [1] was 2.

B2: Four-way junction (FWJ, DNA 3) (structured_DNA)
DNA 1: GACGCTGCCGAATCCTACCAGTGCCTTGCTAGGACATCTTTGCCCACCTGCAGGTCACCC
DNA 2: TGGGTGAACCTGCAGGTGGGCAAAGATGTCCTAGCAATGTAATCGTCAAGCTTTATGCCGTT
DNA 3: ATCGATAGTCGGATCCTCTAGACAGCATGTCCTAGCAAGGCACTGGTAGAATTCGGCAGCGT
DNA 4: CAACGGCATAAAGCTTGACGATTACATTGCTAGGACATGCTGTCTAGAGGATCCGACTATCGA
B2: binds (TmMutS2 [2]).

B3: Flayed (DNA 4, fork) (structured_DNA)
DNA 1: AACGGCATAAAGCTTGACGATTACATTGCTAGGACATGCTGTCTAGAGGATCCGACTATCGA
DNA 2: TGGGTGAACCTGCAGGTGGGCAAAGATGTCCTAGCAATGTAATCGTCAAGCTTTATGCCGTT
B3: binds (TmMutS2 [3]).
